# Patent publication US20100137208A1, “INTRATUMORALLY ADMINISTERED LACTOFERRIN IN THE TREATMENT OF MALIGNANTNEOPLASMS AND OTHER HYPERPROLIFERATIVE DISEASES” (priority 2002, published 2010)
# System: IL-18
# Assay: IL-18 levels in small intestine and serum after oral rhLF or bLF (ELISA)
# Format: in vivo, mice
# Description: Recombinant human lactoferrin and bovine lactoferrin were orally administered to mice, and the production of IL-18 in the small intestine was measured.
# Mice were treated for three days daily with 65 mg/kg/day of rhLF, 300 mg/kg/day of rhLF or 300 mg/kg/day of bLF. For a control, mice were only administered the pharmaceutical carrier. Twenty-four hours following administration of the LF or control for 3 days, animals were weighed and blood and serum were collected. Serum was used for cytokine ELISA assays.
# Also, at these time points, animals were sacrificed and the small intestinal tissue was removed for further analysis. Small intestinal epithelium was homogenized using a lysis buffer consisting of PBS, 1% Nonidet P-40, 0.5% sodium deoxycholate, and 0.1% sodium dodecyl sulphate containing 10 μg/ml PhenylMetheylsulfonyl fluoride. Homogenate was centrifuged at 15,000 rpm for 10 minutes and the supernatant stored at −80 C till it was tested for IL-18 levels.
# [1] = oral 300 mg/kg/day for three days
# [2] = oral 300 mg/kg/day for three days, 24 h after last dose
molecule,measurement,setting,value
"bLF: bovine lactoferrin, orally administered comparator (protein, UniProt P24627 20-708, looked up) Lactotransferrin: APRKNVRWCTISQPEWFKCRRWQWRMKKLGAPSITCVRRAFALECIRAIAEKKADAVTLDGGMVFEAGRDPYKLRPVAAEIYGTKESPQTHYYAVAVVKKGSNFQLDQLQGRKSCHTGLGRSAGWIIPMGILRPYLSWTESLEPLQGAVAKFFSASCVPCIDRQAYPNLCQLCKGEGENQCACSSREPYFGYSGAFKCLQDGAGDVAFVKETTVFENLPEKADRDQYELLCLNNSRAPVDAFKECHLAQVPSHAVVARSVDGKEDLIWKLLSKAQEKFGKNKSRSFQLFGSPPGQRDLLFKDSALGFLRIPSKVDSALYLGSRYLTTLKNLRETAEEVKARYTRVVWCAVGPEEQKKCQQWSQQSGQNVTCATASTTDDCIVLVLKGEADALNLDGGYIYTAGKCGLVPVLAENRKSSKHSSLDCVLRPTEGYLAVAVVKKANEGLTWNSLKDKKSCHTAVDRTAGWNIPMGLIVNQTGSCAFDEFFSQSCAPGADPKSRLCALCAGDDQGLDKCVPNSKEKYYGYTGAFRCLAEDVGDVAFVKNDTVWENTNGESTADWAKNLNREDFRLLCLDGTRKPVTEAQSCHLAVAPNHAVVSRSDRAAHVKQVLLHQQALFGKNGKNCPDKFCLFKSETKNLLFNDNTECLAKLGGRPTYEEYLGTEYVTAIANLKKCSTSPLLEACAFLTR",serum levels of IL-18 (in words),oral 300 mg/kg/day,did not increase
same,IL-18 Intestinal Extract % Increase Over Control,[1],373%
same,IL-18 Serum % Increase Over Control,[1],−5%
same,"IL-18 level, Intestinal Extract",[2],"4,515 pg"
same,"IL-18 level, Serum",[2],134 pg
same,intestinal IL-18 levels (in words),"oral 300 mg/kg/day, compared with rhLF",lesser increase
